B1: huPrP-39 (scFv, V domains shown)
VH: EVQLVQSGGGLVQPGRSLRLSCAASGFTFGDYAMSWVRQAPGKGPEWIATISSSGDILDYADSVRGRFSISRDNAQRSLHLQMTSLRPDDSAIYYCAREYFFSFDVWGRGTTVTVSS
VL: QSVLAQPPSLSVSPGQTARITCSGDGVGSGFVSWYQQRPGQSPSVVIYDDAKRPSGIPERFSGSNSGDTATLTISESRAVDEADYYCQTWDSRSPVFGGGTKVTVLG
B2: boPrP-2 (scFv, V domains shown)
VH: QVQLVQSGGGLVQPGRSLRLSCAASGFTFDDYAMHWVRQAPGKGLEWVSGISWNSGSIGYADSVKGRFTISRDNAKNSLYLQMNSLRAEDTALYYCAKGGGSYYYFDYWGQGTLVTVSS
VL: QSVLTQPPSVSGAPGQRVSISCTGNRSNIGAGYDVHWYQQVPGMAPKLLIYGNTKRPSGVPDRFSGSKSGTSASLAITGLQAEDEADYYCQSFDNTLSDSRWVFGGGTKLTVLG
B3: boPrP-15 (scFv)
chain 1: QVQLVQSGAEVKKPGASVKVSCKASGYTFTSYGISWVRQAPGQGLEWMGWISAYNGNTNYAQKLQGRVTMTTDTSTSTAYMELRSLRSDDTAVYYCARYGGRIAAASYNWFDPWGQGTLAICPDSACLRVWVSWTVDHLVTVSS
chain 2: QSALTQPASVSGSPGQSITISCTGTSSDVGGYNYVSWYQQHPGKAPRLMIYDVSNRPSGVSNRFSGSKSGNTASLTISGLQSEDEADYYCSSYTSSSTLVFGTGTKLTVLG
B4: huPrP-18 (scFv, V domains shown)
VH: QVQLVQSGAEVKKPGASVKVSCKASGYTFTSYPIHWVRQAPGQRLEWMGWLNPGTGVTKYSQNFQGRVTLTSDTSANTAYLELSSLRSEDTALYYCTRDPLDSRKNWFDPWGQGTLVTVSS
VL: SYVLTQPPSASGTPGQRVTISCSGSNSNIGTNFVYWYQQLPGTAPKLLIYRNNQRPSGVPDRFSGSKSGTSASLAISGLRSEDEADYYCAAWDDSLSGRVFGGGTQLTVLG
B5: boPrP-20 (scFv, V domains shown)
VH: QVQLVQSGGGLVQPGRSLRLSCAASGFTFDDYAMHWVRQAPGKGLEWVSGISWNSGSIGYADSVKGRFTISRDNAKNSLYLQMNSLRAEDTALYYCAKQGDEAAAGTGFDYWGQGTLVTVSS
VL: QSVLTQPPSASAAPGQGVTISCSGSSSNIGTNTVAWYQHLPETAPKLLIYHDSQRPSRVPGRVSGSKSGTSASLAISRLQSDDEADYYCATWDDSLNGWVFGGGTKLTVLG

One assay has as its target bovine α form prion (bovine, UniProt P10279 102-241).
In general, Kd refers to the equilibrium constant for the complex coming apart. Low readings indicate a tighter complex, high ones a looser complex. Consider B1, for which the affinity, expressed as Kd, was 29 nM.
Still for that read-out and setting: the result for B2 reads 410 nM.
On the same count and under the same terms, the result for B3 reads 4.6 nM; that for B4, 60 nM.

The target in a further assay is human α form prion (human, UniProt P04156 90-230).
As to B1, the Kd was found to be 33 nM.
Still for that read-out and setting: the result for B5 reads 36 nM; that for B2, 110 nM.
On the same count and under the same terms, the result for B3 reads 7.8 nM.
Same read-out and setting: the result for B4 reads 20 nM.

Source of the values: WO2006046344A1 (dated 2006).
